Assay results taken from patent publication US20230364254A1, “METHODS FOR TREATING CANCERS WITH ANTIBODY DRUG CONJUGATES (ADC) THAT BIND TO 191P4D12 PROTEINS” (priority 2020, published 2023).

System: patients with locally advanced or metastatic urothelial cancer
Experiment: Same phase 2 study: safety (adverse events, NCI CTCAE v4.03)
Type: in vivo, human
Source text: Safety assessments will be based on the information collected through the safety surveillance process and will include the data from recorded adverse events (AEs) including SAEs, recording of concomitant medication, physical examination findings, cardiac monitoring, and laboratory tests.
The assessment of safety during the course of this study will consist of the surveillance and recording of AEs including SAEs, recording of concomitant medication, and measurements of protocol-specified physical examination findings, cardiac monitoring, and laboratory tests.
AE severity should be graded using the National Cancer Institute's Common Terminology Criteria for Adverse Events (NCI CTCAE), Version 4.03. These criteria are provided in the study manual.
An overview of AEs will provide a tabulation of the incidence of all AEs, treatment-emergent AEs, treatment-related AEs, Grade 3 and higher AEs. SAEs, treatment-related SAEs, deaths, and AEs leading to study treatment discontinuation. Adverse events will be defined as treatment emergent if they are newly occurring or worsened following study treatment.
AEs will be classified by system organ class and preferred tem using the Medical Dictionary for Regulatory Activities (MedDRA) and graded using NCI CTCAE, Version 4.03.
The incidence of AEs will be summarized by system organ class, preferred term, severity and relationship to study drug. In the event of multiple occurrences of the same AE in one patient, the AE will be counted once as the occurrence for the maximum grade. AEs leading to premature discontinuation of study drug will be summarized and listed in the same manner.

[1] = Total (N = 214), count (percent)
[2] = treatment-related TEAEs of interest
[3] = treatment-related TEAEs of interest, as of last follow-up
[4] = treatment-related TEAEs of interest, enfortumab vedotin 1.25 mg/kg, patients with locally advanced or metastatic urothelial cancer
[5] = treatment-related TEAEs of interest, most occurred in Cycle 1

enfortumab vedotin: Nectin-4 directed ADC: fully human anti-nectin-4 IgG1 kappa antibody (AGS-22C3) conjugated to MMAE via protease-cleavable maleimidocaproyl valine-citrulline linker
Treatment-related AE leading to discontinuation: Multiple organ dysfunction syndrome (Total (N = 214)): 1 (0.5) n (%) | Treatment-related AE leading to discontinuation: Muscular weakness (Total (N = 214)): 1 (0.5) n (%) | Treatment-related AE leading to discontinuation: Overall (Total (N = 214)): 29 (13.6) n (%) | Treatment-related AE leading to discontinuation: Peripheral motor neuropathy (Total (N = 214)): 1 (0.5) n (%) | Treatment-related AE leading to discontinuation: Peripheral sensory neuropathy (Total (N = 214)): 12 (5.6) n (%) | Treatment-related AE leading to discontinuation: Pneumonitis (Total (N = 214)): 1 (0.5) n (%) | Treatment-related AE leading to discontinuation: Stevens-Johnson syndrome (Total (N = 214)): 1 (0.5) n (%) | Treatment-related TEAEs (Total (N = 214)): 203 (94.9) n (%) | Treatment-related TEAEs (all grades): Alopecia (Total (N = 214)): 107 (50.0) n (%) | Treatment-related TEAEs (all grades): Anaemia (Total (N = 214)): 49 (22.9) n (%) | Treatment-related TEAEs (all grades): Aspartate aminotransferase increased (Total (N = 214)): 24 (11.2) n (%) | Treatment-related TEAEs (all grades): Decreased appetite (Total (N = 214)): 84 (39.3) n (%) | Treatment-related TEAEs (all grades): Diarrhoea (Total (N = 214)): 61 (28.5) n (%) | Treatment-related TEAEs (all grades): Dry eye (Total (N = 214)): 36 (16.8) n (%) | Treatment-related TEAEs (all grades): Dry skin (Total (N = 214)): 46 (21.5) n (%) | Treatment-related TEAEs (all grades): Dysgeusia (Total (N = 214)): 71 (33.2) n (%) | Treatment-related TEAEs (all grades): Fatigue (Total (N = 214)): 92 (43.0) n (%) | Treatment-related TEAEs (all grades): Lacrimation increased (Total (N = 214)): 30 (14.0) n (%) | Treatment-related TEAEs (all grades): Nausea (Total (N = 214)): 70 (32.7) n (%) | Treatment-related TEAEs (all grades): Neutropenia (Total (N = 214)): 24 (11.2) n (%) | Treatment-related TEAEs (all grades): Oedema peripheral (Total (N = 214)): 25 (11.7) n (%) | Treatment-related TEAEs (all grades): Overall (Total (N = 214)): 203 (94.9) n (%) | Treatment-related TEAEs (all grades): Peripheral sensory neuropathy (Total (N = 214)): 92 (43.0) n (%) | Treatment-related TEAEs (all grades): Pruritus (Total (N = 214)): 59 (27.6) n (%) | Treatment-related TEAEs (all grades): Rash maculo-papular (Total (N = 214)): 55 (25.7) n (%) | Treatment-related TEAEs (all grades): Vomiting (Total (N = 214)): 26 (12.1) n (%) | Treatment-related TEAEs (all grades): Weight decreased (Total (N = 214)): 52 (24.3) n (%) | Treatment-related TEAEs leading to death (Total (N = 214)): 3 (1.4) n (%) | Treatment-related TEAEs leading to treatment discontinuation (Total (N = 214)): 29 (13.6) n (%) | Treatment-related TEAEs ≥Grade 3: Acute kidney injury (Total (N = 214)): 5 (2.3) n (%) | Treatment-related TEAEs ≥Grade 3: Amylase increased (Total (N = 214)): 6 (2.8) n (%) | Treatment-related TEAEs ≥Grade 3: Anaemia (Total (N = 214)): 14 (6.5) n (%) | Treatment-related TEAEs ≥Grade 3: Aspartate aminotransferase increased (Total (N = 214)): 6 (2.8) n (%) | Treatment-related TEAEs ≥Grade 3: Decreased appetite (Total (N = 214)): 6 (2.8) n (%) | Treatment-related TEAEs ≥Grade 3: Diarrhoea (Total (N = 214)): 8 (3.7) n (%) | Treatment-related TEAEs ≥Grade 3: Fatigue (Total (N = 214)): 14 (6.5) n (%) | Treatment-related TEAEs ≥Grade 3: Febrile neutropenia (Total (N = 214)): 6 (2.8) n (%) | Treatment-related TEAEs ≥Grade 3: Hyperglycaemia (Total (N = 214)): 10 (4.7) n (%) | Treatment-related TEAEs ≥Grade 3: Hyponatraemia (Total (N = 214)): 6 (2.8) n (%) | Treatment-related TEAEs ≥Grade 3: Lipase increased (Total (N = 214)): 10 (4.7) n (%) | Treatment-related TEAEs ≥Grade 3: Neutropenia (Total (N = 214)): 18 (8.4) n (%) | Treatment-related TEAEs ≥Grade 3: Neutrophil count decreased (Total (N = 214)): 16 (2.8) n (%) | Treatment-related TEAEs ≥Grade 3: Overall (Total (N = 214)): 119 (55.6) n (%) | Treatment-related TEAEs ≥Grade 3: Peripheral sensory neuropathy (Total (N = 214)): 5 (2.3) n (%) | Treatment-related TEAEs ≥Grade 3: Pruritus (Total (N = 214)): 5 (2.3) n (%) | Treatment-related TEAEs ≥Grade 3: Rash erythematous (Total (N = 214)): 6 (2.8) n (%) | Treatment-related TEAEs ≥Grade 3: Rash maculo-papular (Total (N = 214)): 12 (5.6) n (%) | Treatment-related grade 3-5 TEAEs (Total (N = 214)): 119 (55.6) n (%) | Treatment-related serious TEAEs (Total (N = 214)): 39 (18.2) n (%) | TEAEs leading to death (excluding disease progression): Acute kidney injury [1]: 2 (0.9) | TEAEs leading to death (excluding disease progression): Acute respiratory failure [1]: 1 (0.5) | TEAEs leading to death (excluding disease progression): Cardiac disorder [1]: 1 (0.5) | TEAEs leading to death (excluding disease progression): Metabolic acidosis [1]: 1 (0.5) | TEAEs leading to death (excluding disease progression): Multiple organ dysfunction syndrome [1]: 1 (0.5) | TEAEs leading to death (excluding disease progression): Overall [1]: 9 (4.2) | TEAEs leading to death (excluding disease progression): Pneumonia aspiration [1]: 1 (0.5) | TEAEs leading to death (excluding disease progression): Sepsis [1]: 2 (0.9) | Discontinuation due to treatment-related peripheral neuropathy (cohort 1): 6% | Discontinuation rate due to treatment-related AEs (cohort 1): 12% | Grade 3 or Grade 4 treatment-related TEAE: anemia (cohort 1): 7% | Grade 3 or Grade 4 treatment-related TEAE: fatigue (cohort 1): 6% | Grade 3 or Grade 4 treatment-related TEAE: neutropenia (cohort 1): 8% | SAE (unrelated and related): cellulitis (cohort 1): 4.8% | SAE (unrelated and related): urinary tract infection (cohort 1): 4.8% | cases of Stevens-Johnson Syndrome reported (cohort 1): One | related SAE: febrile neutropenia (cohort 1): 4% | subjects with a Grade 3 or Grade 4 treatment-related TEAE (cohort 1): 54% | deaths assessed as treatment-related (cohort 1, interstitial lung disease): one and One | Discontinuation due to treatment-related peripheral neuropathy (cohort 2): 4.5% | Discontinuation rate due to treatment-related AEs (cohort 2): 15.7% | SAE (unrelated and related): acute kidney injury (cohort 2): 10.1% | deaths assessed as treatment-related by investigators (cohort 2): Four | related SAE: acute kidney injury (cohort 2): 3.4% | subjects with a treatment-related TEAE greater than or equal to Grade 3 (cohort 2): 55.1% | treatment-related TEAE ≥Grade 3: fatigue (cohort 2): 6.7% | treatment-related TEAE ≥Grade 3: neutropenia (cohort 2): 9% | treatment-related TEAE ≥Grade 3: rash maculo-popular (cohort 2): 7.9% | Hyperglycemia, >Grade 3 [2]: 6% | Peripheral Neuropathy, >Grade 3 [2]: 8% | Peripheral Neuropathy, Median Onset [2]: 2.6 months | Skin Reactions, >Grade 3 [2]: 17% | Hyperglycemia, Resolution/improvement [3]: 89% | Peripheral Neuropathy, Resolution/improvement [3]: 54% | Skin Reactions, Resolution/improvement [3]: 80% | Hyperglycemia, Any grade [4]: 10% | Peripheral Neuropathy, Any grade [4]: 56% | Skin Reactions, Any grade [4]: 61% | Hyperglycemia, Median Onset [5]: 0.5ª months | Skin Reactions, Median Onset [5]: 0.5ª months
